Assay results reported in article PMC2180222 (The Journal of Cell Biology, 2000).

Target: the molecule itself
Assay: negative-stain electron microscopy

B1: HIV-1 Rev (natural protein, UniProt P04616 1-116, looked up)
chain: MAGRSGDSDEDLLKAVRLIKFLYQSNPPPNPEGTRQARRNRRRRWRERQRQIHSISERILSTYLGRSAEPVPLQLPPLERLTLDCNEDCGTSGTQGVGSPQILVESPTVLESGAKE
**Q.** Does B1 bind?
**A.** Result: binds
